Reference: paper PMC8960791 (2022)

Target: soluble HLA-E-VL9, HLA-E*01:03 heavy chain refolded with β2-microglobulin and synthetic VL9 peptide (human | )
Test: SPR

B1: 3H4 IgG, recombinant 3H4 in a human IgG1 backbone (antibody, V domains shown)
VH: EVQLQESGPELVKPGASVKIPCKASGYTFTDYNMDWVKQSHGKSLEWIGDINPNNGGTIYNQKFKGKATLTVDKSSSTAYMELRSLTSEDTAVYYCARPDYYGSSYGWYFDVWGTGTTVTVSS
VL: DIVITQSPSSMYASLGERVTITCKASQDINSYLSWFQQKPGKSPKTLIYRANRLVDGVPSRFSGSGSGQDYSLTISSLEYEDMGIYYCLQYDEFPLTFGAGTKLELK
- koff: 0.51 s⁻¹
